Reference: PMC5443158

Tested on: CodY (Streptococcus pneumoniae D39)
Assay: EMSA
Conditions: lowest CodY concentration giving binding, 10 nM DNA, 5X binding buffer: 20 mM Tris-HCl pH 7.5, 30 mM KCl, 1 mM DTT, 1 mM EDTA, 10% glycerol, room temperature, 30 min (Fig 4A,B) or 20 min (Fig 4C), 20 ul, 8% …

Substance: tpxD promoter probe (FAM)
- binding (2 mM H2O2): 400 nM
- binding (no H2O2, no BCAA): 600 nM
